Data from publication PMC314469, “Protein Interaction Networks by Proteome Peptide Scanning” (PLoS Biology, 2004).

T1: Yhr016c SH3 (YSC84_YEAST), P32793
T1 chain: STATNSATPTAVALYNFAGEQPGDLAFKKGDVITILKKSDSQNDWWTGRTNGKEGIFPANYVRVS

T2: Rvs167 SH3 (RV167_YEAST), P39743
T2 chain: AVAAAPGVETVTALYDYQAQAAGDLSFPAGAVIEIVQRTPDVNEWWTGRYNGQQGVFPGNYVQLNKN

T3: Boi1 SH3 (BOI1_YEAST), P38041
T3 chain: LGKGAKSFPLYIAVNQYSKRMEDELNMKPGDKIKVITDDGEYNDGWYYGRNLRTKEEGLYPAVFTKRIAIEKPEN

T4: Yfr024 SH3 (LSB3_YEAST), P43603
T4 chain: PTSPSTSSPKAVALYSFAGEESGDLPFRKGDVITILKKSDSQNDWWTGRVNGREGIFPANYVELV

T5: Boi2 SH3 (BOI2_YEAST), P39969
T5 chain: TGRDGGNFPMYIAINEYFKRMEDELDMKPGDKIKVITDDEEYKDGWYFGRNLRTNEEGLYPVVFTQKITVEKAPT

T6: Myo5 SH3 (MYO5_YEAST), Q04439
T6 chain: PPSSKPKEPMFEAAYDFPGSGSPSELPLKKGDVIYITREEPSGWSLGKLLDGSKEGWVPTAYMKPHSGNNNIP


Key:
Experiment in all cases: SPOT array
[1] = target: T1, Yhr016c SH3 (YSC84_YEAST), P32793
[2] = target: Sho1 SH3 (SHO1_YEAST), P40073
Sequence of Sho1 SH3 (SHO1_YEAST), P40073 (P40073 295-366): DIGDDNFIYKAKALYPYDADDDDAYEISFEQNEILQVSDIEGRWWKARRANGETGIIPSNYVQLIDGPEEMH

[3] = target: T2, Rvs167 SH3 (RV167_YEAST), P39743
[4] = target: T3, Boi1 SH3 (BOI1_YEAST), P38041
[5] = target: T4, Yfr024 SH3 (LSB3_YEAST), P43603
[6] = target: T5, Boi2 SH3 (BOI2_YEAST), P39969
[7] = target: T6, Myo5 SH3 (MYO5_YEAST), Q04439

Row | normalised SPOT signal, Boehringer light units (BLU); mean over the file's lines of this peptide [1] | normalised SPOT signal, Boehringer light units (BLU); mean over the file's lines of this peptide [2] | normalised SPOT signal, Boehringer light units (BLU); mean over the file's lines of this peptide [3] | normalised SPOT signal, Boehringer light units (BLU); mean over the file's lines of this peptide [4] | normalised SPOT signal, Boehringer light units (BLU); mean over the file's lines of this peptide [5] | normalised SPOT signal, Boehringer light units (BLU); mean over the file's lines of this peptide [6] | normalised SPOT signal, Boehringer light units (BLU); mean over the file's lines of this peptide [7] | Binder
1 | 15.7 | 39.1 | 52.3 | 57.4 | 21.3 | 34 | 176 | DVNHRYPPMAPTTV [YPR008W 508-521]
2 | 30.2 | 24.8 | 13.3 | 149 | 140 | 23.1 | 110 | EEQVKSNPNRPIYW [YGR234W 292-305]
3 | 177 | 52.1 | 354 | 13600 | 2260 | 37.1 | 261 | DSYSRSRPTRPLGY [YNL165W 293-306]
4 | 2.1 | 17.6 | 13.6 | 40.9 | 0 | 17.3 | 756 | EDLVKKPPFIPSPT [YDR219C 208-221]
5 | 39.1 | 4.9 | 46.3 | 118 | 17.2 | 31.6 | 138 | DTYARNNPDFPPQN [YDR164C 226-239]
6 | 16.2 | 38.9 | 32.7 | 40.4 | 72.6 | 2 | 87.3 | EFDEKLPPKKPAGP [YMR072W 109-122]
7 | 45.9 | 48.2 | 125 | 108 | 99 | 17.7 | 587 | EEKVKRTPPLPPVP [YOL093W 10-23]
8 | 9.2 | 26.5 | 43.8 | 1240 | 114 | 10.2 | 135 | DSVLRQKPDKPRPI [YMR032W 380-393]
9 | 36.2 | 23.7 | 19.7 | 75.6 | 38.5 | 6 | 154 | DYRPKSIPSPPNGI [YML034W 511-524]
10 | 23.2 | 30.7 | 22.8 | 25.7 | 0 | 28.7 | 134 | EEQVKEKPNEPEGK [YLL021W 188-201]
11 | 37.2 | 237 | 154 | 804 | 136 | 16.3 | 226 | DRLSKIKPFLPQSI [YLR247C 271-284]
12 | 56.7 | 10.6 | 42.8 | 114 | 0 | 4.5 | 29.4 | EEEAKSVPPIPADQ [YOL027C 550-563]
13 | 11.8 | 54.5 | 75.6 | 65.7 | 25.2 | 41.9 | 182 | EELARVTPLTPKEY [YDL195W 1179-1192]
